Test system: K4 kissing-loop RNA reporter
Test: apparent KD of K4 kissing-loop reporter; higher = weaker reporter binding
Settings: Eterna round: R107; input ligand: arginine 13.2 mM
Procedure: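 RNA-MaP round R107: designed RNA switches with theophylline, tryptophan, arginine or FMN aptamers are transcribed on-chip within common flanks. They are titrated with a labelled K4 kissing-loop RNA reporter in RNA-MaP buffer (100 mM Tris pH 7.5, 80 mM KCl, 4 mM MgCl2), without ligand or with the indicated ligand. Median apparent KD per design.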
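Further: bound reporter read as fluorescence of individual clusters on recovered sequencing chips by microscopy, with normalized cluster intensities fitted with a binding model.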

Sequence | apparent KD of K4 kissing-loop reporter
AGACUACCUACACUGUCAAUAGACAGUGACUAGGAUAUGCUGAUAAGCAGAAGGAGUGAUGUUCCUGGUAGUCAAAUAAAAUAAU [FmnAX 12 #SwitchBubble #StaticStem #K4Early] | 295 nM
UGAUAGGACAGAAGGAGCGGAAGUGAUGUUUCCAAAAGGCUAAGGUGUCAAAAGACACCCUUCCAGGUAGGUCGCUGUCCUAUCU | 274 nM
CGGCCCGGCGCGGCCGCCACUGUGCCUGGGCGCUUGCCGAGUGAUGUUCGUCGGCGGUCGGGUGGCAGGACCGGGCGCCGGUCCG [BDazzled - #26 SS Tryptophan B] | 129 nM
AGUCGCAGUGAUGUUGCGAUUCCGUUGAGGGAGGAUAUUGGUAAUACAAGAAGGCCCGGCUACGGGAGAUGUUAGCAAUAGGGCC [Exclusion FMN A GF20] | 94.5 nM
AUUUGUUUAUGUGAUACCAGACUUUGCAGUGAUGUUGCAUUUAUUUUAGAAUAUAAUUUAGUCCCUUGGCAGCACUAUGUAUUUA [JR_SSTheophyB_Sub008] | 110 nM
GGAUAGGACAGAGGAUAUGGACAGUCUACAAAGUAGGCUGAAUAAAUCCUUGAAUGGAGUGAUGUUCCAGAAGGCUGUCCUAUCG [FmnBX 22 #SwitchBubble #StaticStem #Palindromic] | 384 nM
UAGCGGGCGAUUCGACGUGCGUCCAGUCAUCGAGGACCGGUACGGCCGCCACUCGCCGGAGUGAUGUUCCGGUACGUCAUAUAAU [theeternabot_sameState_KL_Trp_A_35] | 358 nM
UGUCAUUGGUCGGCCGCCACUAUAAUAAAAGAGUGAUGUUCUAAAAGACGGACAAAAGUCUGUCAUAGGACCGGGACCGAUGACU [TrypBS 25 #SwitchBubble #StaticStem] | 430 nM
AUUAAUAACAGAGGAUAUGCAUUUUUAUUAUUUUUUAUUAUUAUAUGCAGUGAUGUUGCAUAUUAAGCAGAAGGCUGAUUUAUUU [JR_SSFMNB_Sub013] | 105 nM
GCACUUCUCAGUGAUGUUGAGUAAUCGGAAGGAGCGCGUGAAAACGCAGGUAGGUCGCCGAUACAUGAAGUAUCUUCGUGUGUGC [Arginine A K4 25] | 235 nM
ACGUGUCACUGAAGGAGCGUCUACCGAAUACGAGUGAUGUUGGUAUACCACUUAUAUAGUGGACAGGUAGGUCGCAGUGAUACGU [Arg B Ex t4] | 769 nM
AAUCGCAGUGAUGUUGCGAUUCCGUUGAGGGAGGAUAUUGGUAAUACAAGAAGGUUCGGUUACGGGAGAUGUUAGUAAUAGGGCC [Exclusion FMN A GF21] | 41.3 nM
CUUAAGAUAUGAGUGAUGUUUAUGUCCGAAGGAGCGUGCGAAAGUACAGGUAGGUCGCGGAUGUGAGUGAUGUUUAUGUAAGCGA [KL-XArg-A14 #analogue] | 37.1 nM
GGUAGCAUGGCGGCCGCCACUUCGAAUAAGUGAUGUUUAUUUGACUGAGCACCCUAUGCCAUGUGAAGGACCGGGCCAUGCUACC | 138 nM
CGUACGGUUUCUUUCUUUCCGUACGAGUGCCGAGGACCGGUACGGCCGCCACUCGCUACAGCCUAGUGAUGUUAGGCAUUUCUUU | 110 nM
UACCUGCUGUCAGGAUAUGAGUGCAGUGAUGUUGCACUCAACGUAACCAUCUUGAAAUACAAACACUCAGAAGGGACGCACGAAG [Isattema] | 95.9 nM
UUGGAAAUCAGAAGGAGCGUCUAAAAUGAAGGAACCAGUGAUGUUGGUUUUAUUUAAUGAAGACAGGUAGGUCGCUGAAUUUUUA [Same State Arginie B GF 18] | 101 nM

Sequence | apparent KD of K4 kissing-loop reporter
CGCAGUGAUGUUGCGAGUAGAUACAGGGAAGGAGCGCCGUAGUAGGCAGGUAGGUCGCCCACGCAGUGAUGUUGCGUCAUAGGGU [Exclusion Arginine A GF 5] | 91.8 nM
GUCUGAUGCGUUGAUACCAGUCCUUCAGUGAUGUUGCAAGCGCGGCCUAUCAAGCAAUCCGACCCUUGGCAGCAAUAGGUCCGAA [theeternabot_exclusion_KL_Theo_B_9] | 568 nM
AAACUUGCAGUGAUGUUGCAAGUAGGUGAUACCAGCAUCGAAAGAUGCCCUUGGCAGCACCAAAACAUCACUUAGGUGCUGUCUA [(H1)-(H2)-(T1)-(T2)-(H)'-(T)'_Design6] | 494 nM
CUUGGUGGCUACAUCAGGAAUUGCGGCGGAAAGGAUAUUCAUUGGCGAAGAAGGUUCCAAGUGACGAGUGAUGUUCUUCGUAAGG [theeternabot_sameState_KL_FMN_A_13] | 434 nM
AGCGGCCAGUCGGCCGCCACUCCAGGCAGUGAUGUUGCUAAGUUUCUACUAGAGUGAUGUUCUAAGAGGACCGGGACUGACGUAU [Exclusion Tryptophan B Gf 8] | 225 nM
UGUCAUUGGUCGGCCGCCACUUCGGUCAAAGACCAUAAAGAGUGAUGUUCUUAAGACGAAAGUCGAAGGACCGGGACCGAUGACU [TrypBS 11 #SwitchBubble #K4Middle] | 744 nM
AUGGUUGUCGUAGGAUAUGUAGGAUAUUCCUAUAGCAGUGAUGUUGCUAAUAUCUUGGAAAGAAGGACAGAAGGACGAUAACCAC [KL-SSFMN-B2 #analogue] | 112 nM
AGUAGGAAACUACAAUCCUCUCUUACUGAAGGAGCGCGUGAAAACGCAGGUAGGUCGCAGGAUUUGAGAGUGAUGUUCUCAUUAA [Ex Arginine A K4 16] | 294 nM
AAUACGUUCACGGCCGCCACUGAAUAAUUGGUAAGUAGUGAUGUUACUUUACAUAUCUUAUUUAACAGGACCGGGUGAUCGUUUA [JR_Nu_ExcTryptoB_Sub028] | 108 nM
UCACGUGCCAGUGAUGUUGGCGUACGUGAUACCAGAACAAUAAAGUUCCCUUGGCAGCACAAAUAUGCCAAGUUAGAUGUAUGAU [Exclusion Theophylline A GF 3] | 118 nM
ACUUAUUGUGUCGAUACCAGCAGGUGACGACGCCUCAUGGCUGACGAGUGAUGUUCGACUUGCCCUUGGCAGCGACAUACGCCGG [theeternabot_sameState_KL_Theo_B_12] | 228 nM
GAUUCAGUGAUGUUGGAAGGCGAGCGGGAUACCAGCCGAGACUCAGGCCCUUGGCAGCCCACAUAUCCCAGGUAGAUAGUCGCUC [Same State - Theophylline A (Freestyle 10)] | 266 nM
AUUCAGAUCUGAAGGAGCGCGUUGACAUAUUGCUUCAUUGAGCAGUGAUGUUGCUCAGUAACGCAGGUAGGUCGCAGAUCUGGCC [Arg B Ex t7a] | 110 nM
GUGCAGUGAUGUUGCACGAGGAAAGACGAUACCAGCCGUAAAUAAGGCCCUUGGCAGCGUAGGCUAGCAUAAAGUAUGCCAGUCU [Geleerra] | 112 nM
UGACUGGACUGAAGGAGCGCUAAACUCCUAGUGAUGUUAGGGAACCGAGACAAAGUCUCGAGGCAGGUAGGUCGCAGUCUAGUCU [FiskerMod 2 - Jieux - Same State - Arginine B] | 253 nM
GUUUUAUAAGAGGAUACCAGUACAAAUAAAGUACAUUAAUAGUAGAGUGAUGUUCUAAAGUACCCUUGGCAGCUUAGAUUAAGUU [ExTheophylB.E] | 236 nM

Same assay, conditions: Eterna round: R107; input ligand: none

Sequence | apparent KD of K4 kissing-loop reporter
UACUAUAUUCUGUCGUUUUUAUUAGUUUGUCAGGAUAUCGUUUAUUCGAGAAGGGACACUGUCUAGUGAUGUUAGACAUUUCUUU [#04 K4 FMN A Exclusion] | 88.5 nM
AAUAAAAUCACGGCCGCCACUGAUUUUUUUAUUAGGAGUGAUGUUCCUUUGUCUAUAUACCUUAACAGGACCGGGUGAAUAUUUA [JR_SSTryptoB_Sub022] | 67.4 nM
AGUCGAGAUUAUAGACUCGACAGGUCAGAAGGAGCGACGAAUUCGUCAGGUAGGUCGCUGACAUAGCAGUGAUGUUGCUAUACGG [Arg A SS t1] | 150 nM
UAUCAGAUUACUGAUACCAGUCUAAAGACAGUGAUGUUGUCUGAUCGACCACGAUCAAAGGACCCUUGGCAGCAGUGUACUAUUC [#29 K4 Theophylline B Same State] | 192 nM
GGCCGGUUGAAAGGCCGGCCAGAAACCGAAGGAGCGCGAAGAAACGCAGGUAGGUCGCGGAAAACAUGACCAGUGAUGUUGGUCG | 154 nM
GCCGUAGAUGGAAGGAGCGUGGUUAAUGUAAGUGAUGUUUACGAGGUUAACAAUUGACCGCCACAGGUAGGUCGCCAUCUACGGC | 74 nM
UAUGUACGCGGGUAACGGUACAUCGAGGAAGGAGCGUGCGCAGGCACAGGUAGGUCGCCUCAGCGCACGAGUGAUGUUCGUGGGC [Rere] | 271 nM
AGAGUUAUGCGAGGAUAUGCAGUUAGUACUCAAAGAGUACUAACGCAGAGUGAUGUUCUGUGAAACGCAGAAGGUGCAUAACUCA [Omei KL FMN B SS B v4] | 549 nM
CGCAAGCAGCCAGUGAUGUUGGCCGCCUUGCGAGGACCGGUACGGCCGCCACUCGAAGGCGGCUACUGGUAAACCGCCUAACGGA [Onzaenla] | 92.9 nM
UAAUAUAAUCUGUCGUUUACAAUAUUUAGUCAGGAUAUCGUAUAUUCGAGAAGGGACACUAUCUAGUGAUGUUAGAUAUUUCUUU [JR_ExcFMNA_Sub014] | 55.9 nM
AGACUACCUACACUGUCAAUAGACAGUGACUAGGAUAUGCUGAUAAGCAGAAGGAGUGAUGUUCCUGGUAGUCAAAUAAAAUAAU [FmnAX 12 #SwitchBubble #StaticStem #K4Early] | 311 nM
UGAUAGGACAGAAGGAGCGGAAGUGAUGUUUCCAAAAGGCUAAGGUGUCAAAAGACACCCUUCCAGGUAGGUCGCUGUCCUAUCU | 221 nM
CGGCCCGGCGCGGCCGCCACUGUGCCUGGGCGCUUGCCGAGUGAUGUUCGUCGGCGGUCGGGUGGCAGGACCGGGCGCCGGUCCG [BDazzled - #26 SS Tryptophan B] | 131 nM
AGUCGCAGUGAUGUUGCGAUUCCGUUGAGGGAGGAUAUUGGUAAUACAAGAAGGCCCGGCUACGGGAGAUGUUAGCAAUAGGGCC [Exclusion FMN A GF20] | 63 nM
AUUUGUUUAUGUGAUACCAGACUUUGCAGUGAUGUUGCAUUUAUUUUAGAAUAUAAUUUAGUCCCUUGGCAGCACUAUGUAUUUA [JR_SSTheophyB_Sub008] | 73.8 nM
GGAUAGGACAGAGGAUAUGGACAGUCUACAAAGUAGGCUGAAUAAAUCCUUGAAUGGAGUGAUGUUCCAGAAGGCUGUCCUAUCG [FmnBX 22 #SwitchBubble #StaticStem #Palindromic] | 503 nM
UAGCGGGCGAUUCGACGUGCGUCCAGUCAUCGAGGACCGGUACGGCCGCCACUCGCCGGAGUGAUGUUCCGGUACGUCAUAUAAU [theeternabot_sameState_KL_Trp_A_35] | 398 nM
UGUCAUUGGUCGGCCGCCACUAUAAUAAAAGAGUGAUGUUCUAAAAGACGGACAAAAGUCUGUCAUAGGACCGGGACCGAUGACU [TrypBS 25 #SwitchBubble #StaticStem] | 589 nM
AUUAAUAACAGAGGAUAUGCAUUUUUAUUAUUUUUUAUUAUUAUAUGCAGUGAUGUUGCAUAUUAAGCAGAAGGCUGAUUUAUUU [JR_SSFMNB_Sub013] | 79 nM
GCACUUCUCAGUGAUGUUGAGUAAUCGGAAGGAGCGCGUGAAAACGCAGGUAGGUCGCCGAUACAUGAAGUAUCUUCGUGUGUGC [Arginine A K4 25] | 295 nM
ACGUGUCACUGAAGGAGCGUCUACCGAAUACGAGUGAUGUUGGUAUACCACUUAUAUAGUGGACAGGUAGGUCGCAGUGAUACGU [Arg B Ex t4] | 938 nM

Reference: the supplement of paper PMC9170038
